Results taken from patent US20100056762A1 (published 2010).
One block for each molecule: values may come before it. Bridges are numbered along the chain shown (N, C = ends). Where no end group is shown, it is not given here.

Assays:
[1] = target: wild-type epidermal growth factor receptor (wtEGFR) (human) (UniProt P00533); assay: Scatchard, A431 cells
wtEGFR-FLAG (human) = wtEGFR-FLAG (human) (UniProt P00533); assay: FACS, Ba/F3 cells; reference M2 anti-FLAG
[2] = target: C271A/C283A EGFR mutant (human) (UniProt P00533); assay: FACS, Ba/F3 cells, four clones; reference M2 anti-FLAG
[3] = target: T1, EGFR peptide 287-302 (mAb806 peptide epitope) (human, disulfide 1-16); assay: BIAcore, immobilised peptide, antibody 200 nM
T1 peptide: CGADSYEMEEDGVRKC

- receptors per cell (receptors per cell) [1]: 2e+06
- ratio of antibody binding mAb 528/M2 (ratio of median fluorescence) (wtEGFR-FLAG (human)): 1.37
- ratio of antibody binding mAb 528/M2 (ratio of median fluorescence) [2]: 1.08
Molecule: 528 antibody

- maximal binding (RU) [3]: 800 RU
B1: mAb1133 (antibody, V domains shown)
VH: DVQLQGSGPSLVKPSQSLSLTCTVTGYSITSDYAWNWIRQFPGNKLEWMGYISYSGNTRYNPSLRSRISITRDTSKNQFFLQLNSVTTEDTATYYCATAGRGFPYWGQGTLVTVSA
VL: DILMTQSPSSMSVSLGDTVNITCHSSQDINSNIGWLQQKPGKSFKGLIYHGTNLDDGVPSRFSGSGSGADYSLTISSLESEDFADYYCVQYGQFPWTFGGGTKLEIKR
notes: murine IgG2a; also called 1133 antibody; clone 1133
